Experimental data: the supplement of paper PMC9112550, “Optimization of the antimicrobial peptide Bac7 by deep mutational scanning” (BMC Biology, 2022)

Tested on: Escherichia coli TOP10
Assay: shrunken log2 fold change of peptide-encoding DNA abundance (4.5 h post-induction vs induction); higher = less antimicrobial activity (less host growth inhibition)
Details: time post-induction: 4.5 h; library: site-saturation at positions 5, 18, 19, 20
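Also: peptides expressed intracellularly from a pBAD plasmid library in pooled LB shake-flask culture, induced with 0.3% L-arabinose, DNA abundance read by NGS, three biological replicates, DESeq2 with apeglm shrinkage.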

With RRIRSRPPRLPRPRPRPFSNPRP the “shrunken log2 fold change” value was -0.218.

For RRIRERPPRLPRPRPRPGIGPRP, the “shrunken log2 fold change” value was -0.0295.

In the case of RRIRFRPPRLPRPRPRPKDFPRP, the “shrunken log2 fold change” value is reported as -0.158.

In the case of RRIRYRPPRLPRPRPRPYLWPRP, the “shrunken log2 fold change” value is reported as -0.777.

RRIRSRPPRLPRPRPRPSWDPRP was tested, and the “shrunken log2 fold change” value was 0.364.

For RRIRARPPRLPRPRPRPNTDPRP, the “shrunken log2 fold change” value was -0.127.

RRIRSRPPRLPRPRPRPDENPRP was tested, and the “shrunken log2 fold change” value was 0.11.

For RRIRYRPPRLPRPRPRPLIRPRP, the “shrunken log2 fold change” value was -0.85.

For RRIRPRPPRLPRPRPRPLWHPRP, the “shrunken log2 fold change” value was -0.0751.

For RRIRMRPPRLPRPRPRPAEGPRP, the “shrunken log2 fold change” value was 0.265.

With RRIRQRPPRLPRPRPRPNSGPRP the “shrunken log2 fold change” value was -0.0316.

For RRIRLRPPRLPRPRPRPCGAPRP, the “shrunken log2 fold change” value was 0.356.

RRIRIRPPRLPRPRPRPPRAPRP was tested, and the “shrunken log2 fold change” value was 0.417.

For RRIRTRPPRLPRPRPRPINWPRP, the “shrunken log2 fold change” value was -0.0841.

For RRIRRRPPRLPRPRPRPLIKPRP, the “shrunken log2 fold change” value was -0.0254.

With RRIRNRPPRLPRPRPRPTIMPRP the “shrunken log2 fold change” value was -0.0883.

RRIRTRPPRLPRPRPRPKIWPRP was tested, and the “shrunken log2 fold change” value was 0.141.

In the case of RRIRQRPPRLPRPRPRPDQWPRP, the “shrunken log2 fold change” value is reported as 0.129.

With RRIRTRPPRLPRPRPRPWQCPRP the “shrunken log2 fold change” value was 0.00408.

In the case of RRIRGRPPRLPRPRPRPCLPPRP, the “shrunken log2 fold change” value is reported as -0.0995.

For RRIRHRPPRLPRPRPRPNNKPRP, the “shrunken log2 fold change” value was -0.75.

In the case of RRIRYRPPRLPRPRPRPCWRPRP, the “shrunken log2 fold change” value is reported as -0.138.

With RRIRPRPPRLPRPRPRPGSWPRP the “shrunken log2 fold change” value was 0.941.

RRIRWRPPRLPRPRPRPRTYPRP was tested, and the “shrunken log2 fold change” value was -0.331.

In the case of RRIRARPPRLPRPRPRPGCGPRP, the “shrunken log2 fold change” value is reported as 0.887.

For RRIRARPPRLPRPRPRPFRPPRP, the “shrunken log2 fold change” value was 0.153.

RRIRRRPPRLPRPRPRPVHWPRP was tested, and the “shrunken log2 fold change” value was 0.00204.

In the case of RRIRGRPPRLPRPRPRPDIVPRP, the “shrunken log2 fold change” value is reported as 0.192.

With RRIRARPPRLPRPRPRPQPQPRP the “shrunken log2 fold change” value was 0.436.

In the case of RRIRVRPPRLPRPRPRPSRAPRP, the “shrunken log2 fold change” value is reported as 0.152.

RRIRTRPPRLPRPRPRPLPWPRP was tested, and the “shrunken log2 fold change” value was 0.147.

With RRIRTRPPRLPRPRPRPSIRPRP the “shrunken log2 fold change” value was -0.183.

For RRIRARPPRLPRPRPRPHDLPRP, the “shrunken log2 fold change” value was 0.084.

For RRIRPRPPRLPRPRPRPRDIPRP, the “shrunken log2 fold change” value was -0.191.

With RRIRIRPPRLPRPRPRPETFPRP the “shrunken log2 fold change” value was -0.202.

For RRIRNRPPRLPRPRPRPESMPRP, the “shrunken log2 fold change” value was 0.669.

In the case of RRIRIRPPRLPRPRPRPYTNPRP, the “shrunken log2 fold change” value is reported as -0.957.

In the case of RRIRRRPPRLPRPRPRPVVSPRP, the “shrunken log2 fold change” value is reported as 0.132.

For RRIRMRPPRLPRPRPRPNGNPRP, the “shrunken log2 fold change” value was 0.261.

With RRIRVRPPRLPRPRPRPQQFPRP the “shrunken log2 fold change” value was 0.0811.

In the case of RRIRPRPPRLPRPRPRPFVAPRP, the “shrunken log2 fold change” value is reported as -0.186.

In the case of RRIRHRPPRLPRPRPRPPLCPRP, the “shrunken log2 fold change” value is reported as 0.0792.

With RRIRNRPPRLPRPRPRPAIIPRP the “shrunken log2 fold change” value was 0.154.

For RRIRCRPPRLPRPRPRPCNDPRP, the “shrunken log2 fold change” value was -0.173.

With RRIRCRPPRLPRPRPRPEFPPRP the “shrunken log2 fold change” value was 0.278.

RRIRDRPPRLPRPRPRPHNEPRP was tested, and the “shrunken log2 fold change” value was -0.701.

For RRIRWRPPRLPRPRPRPSFLPRP, the “shrunken log2 fold change” value was -0.351.

With RRIRMRPPRLPRPRPRPCARPRP the “shrunken log2 fold change” value was 0.343.

For RRIRGRPPRLPRPRPRPAQDPRP, the “shrunken log2 fold change” value was 0.836.

In the case of RRIRFRPPRLPRPRPRPPGIPRP, the “shrunken log2 fold change” value is reported as 0.151.

With RRIRIRPPRLPRPRPRPRTSPRP the “shrunken log2 fold change” value was 0.0339.

RRIRNRPPRLPRPRPRPSVSPRP was tested, and the “shrunken log2 fold change” value was -0.44.

In the case of RRIRQRPPRLPRPRPRPGPIPRP, the “shrunken log2 fold change” value is reported as 0.253.

In the case of RRIRDRPPRLPRPRPRPFVWPRP, the “shrunken log2 fold change” value is reported as 0.525.

For RRIRNRPPRLPRPRPRPGCCPRP, the “shrunken log2 fold change” value was -0.0641.

RRIRHRPPRLPRPRPRPQQTPRP was tested, and the “shrunken log2 fold change” value was 0.0173.

In the case of RRIRMRPPRLPRPRPRPHNLPRP, the “shrunken log2 fold change” value is reported as -0.0351.

For RRIRYRPPRLPRPRPRPHEAPRP, the “shrunken log2 fold change” value was -0.215.

With RRIRPRPPRLPRPRPRPSIWPRP the “shrunken log2 fold change” value was -0.11.

In the case of RRIRMRPPRLPRPRPRPAFFPRP, the “shrunken log2 fold change” value is reported as 0.403.

With RRIRPRPPRLPRPRPRPHMPPRP the “shrunken log2 fold change” value was -0.154.

RRIRPRPPRLPRPRPRPADGPRP was tested, and the “shrunken log2 fold change” value was 0.297.

With RRIRVRPPRLPRPRPRPCHIPRP the “shrunken log2 fold change” value was -0.312.

For RRIRERPPRLPRPRPRPVFEPRP, the “shrunken log2 fold change” value was -0.151.

RRIRNRPPRLPRPRPRPAFQPRP was tested, and the “shrunken log2 fold change” value was -0.0462.

For RRIRWRPPRLPRPRPRPEAIPRP, the “shrunken log2 fold change” value was 0.25.

For RRIRYRPPRLPRPRPRPRQTPRP, the “shrunken log2 fold change” value was -0.0574.

In the case of RRIRYRPPRLPRPRPRPLSFPRP, the “shrunken log2 fold change” value is reported as -1.04.

In the case of RRIRKRPPRLPRPRPRPRERPRP, the “shrunken log2 fold change” value is reported as 0.358.

With RRIRCRPPRLPRPRPRPIQFPRP the “shrunken log2 fold change” value was -0.131.

In the case of RRIRMRPPRLPRPRPRPPSPPRP, the “shrunken log2 fold change” value is reported as 1.57.

In the case of RRIRVRPPRLPRPRPRPGSMPRP, the “shrunken log2 fold change” value is reported as -0.00131.

With RRIRQRPPRLPRPRPRPDSYPRP the “shrunken log2 fold change” value was -0.127.

RRIRFRPPRLPRPRPRPAAIPRP was tested, and the “shrunken log2 fold change” value was 1.19.

For RRIRQRPPRLPRPRPRPRKCPRP, the “shrunken log2 fold change” value was 0.158.

For RRIRERPPRLPRPRPRPTKIPRP, the “shrunken log2 fold change” value was -0.19.

In the case of RRIRPRPPRLPRPRPRPVAYPRP, the “shrunken log2 fold change” value is reported as -0.173.

For RRIRLRPPRLPRPRPRPTYTPRP, the “shrunken log2 fold change” value was -0.317.

RRIRVRPPRLPRPRPRPVMYPRP was tested, and the “shrunken log2 fold change” value was -0.251.

For RRIRGRPPRLPRPRPRPHMDPRP, the “shrunken log2 fold change” value was 0.0325.

With RRIRYRPPRLPRPRPRPSTMPRP the “shrunken log2 fold change” value was -0.434.

For RRIRPRPPRLPRPRPRPCDIPRP, the “shrunken log2 fold change” value was 0.024.

With RRIRHRPPRLPRPRPRPWTLPRP the “shrunken log2 fold change” value was -0.00151.

RRIRIRPPRLPRPRPRPGNQPRP was tested, and the “shrunken log2 fold change” value was -0.839.

In the case of RRIRFRPPRLPRPRPRPYCEPRP, the “shrunken log2 fold change” value is reported as -0.0267.

For RRIRRRPPRLPRPRPRPLIQPRP, the “shrunken log2 fold change” value was 0.256.

For RRIRFRPPRLPRPRPRPRNVPRP, the “shrunken log2 fold change” value was -0.372.

RRIRSRPPRLPRPRPRPFRQPRP was tested, and the “shrunken log2 fold change” value was 3.58.

With RRIRQRPPRLPRPRPRPENDPRP the “shrunken log2 fold change” value was -0.0134.

RRIRTRPPRLPRPRPRPVFLPRP was tested, and the “shrunken log2 fold change” value was -0.56.

RRIRYRPPRLPRPRPRPERSPRP was tested, and the “shrunken log2 fold change” value was -0.00131.

In the case of RRIRHRPPRLPRPRPRPYHCPRP, the “shrunken log2 fold change” value is reported as -0.316.

For RRIRARPPRLPRPRPRPMLEPRP, the “shrunken log2 fold change” value was 0.455.

RRIRYRPPRLPRPRPRPSKVPRP was tested, and the “shrunken log2 fold change” value was -1.04.

RRIRKRPPRLPRPRPRPRQGPRP was tested, and the “shrunken log2 fold change” value was 0.708.

RRIRTRPPRLPRPRPRPWAKPRP was tested, and the “shrunken log2 fold change” value was 0.057.

RRIRVRPPRLPRPRPRPRPQPRP was tested, and the “shrunken log2 fold change” value was 0.365.

In the case of RRIRNRPPRLPRPRPRPGQAPRP, the “shrunken log2 fold change” value is reported as 0.0345.

In the case of RRIRRRPPRLPRPRPRPPNWPRP, the “shrunken log2 fold change” value is reported as 0.581.

For RRIRSRPPRLPRPRPRPCHDPRP, the “shrunken log2 fold change” value was -0.105.

RRIRNRPPRLPRPRPRPGMCPRP was tested, and the “shrunken log2 fold change” value was -0.0316.

RRIRGRPPRLPRPRPRPSRHPRP was tested, and the “shrunken log2 fold change” value was 0.0789.

In the case of RRIRNRPPRLPRPRPRPHMEPRP, the “shrunken log2 fold change” value is reported as -0.145.

With RRIRHRPPRLPRPRPRPYHSPRP the “shrunken log2 fold change” value was -0.0215.

For RRIRIRPPRLPRPRPRPIMWPRP, the “shrunken log2 fold change” value was -0.0162.

For RRIRERPPRLPRPRPRPTVTPRP, the “shrunken log2 fold change” value was 0.0913.

With RRIRSRPPRLPRPRPRPFCPPRP the “shrunken log2 fold change” value was -0.31.

In the case of RRIRRRPPRLPRPRPRPFRYPRP, the “shrunken log2 fold change” value is reported as 0.292.

For RRIRSRPPRLPRPRPRPWAGPRP, the “shrunken log2 fold change” value was -0.255.

For RRIRGRPPRLPRPRPRPGHRPRP, the “shrunken log2 fold change” value was 0.263.

RRIRMRPPRLPRPRPRPETFPRP was tested, and the “shrunken log2 fold change” value was 0.211.

RRIRIRPPRLPRPRPRPMHRPRP was tested, and the “shrunken log2 fold change” value was -0.262.

RRIRLRPPRLPRPRPRPLVCPRP was tested, and the “shrunken log2 fold change” value was -0.0954.

For RRIRSRPPRLPRPRPRPKLRPRP, the “shrunken log2 fold change” value was 0.111.

With RRIRIRPPRLPRPRPRPWVIPRP the “shrunken log2 fold change” value was -0.0141.

RRIRQRPPRLPRPRPRPLNCPRP was tested, and the “shrunken log2 fold change” value was -0.0264.

RRIRGRPPRLPRPRPRPNYVPRP was tested, and the “shrunken log2 fold change” value was 0.216.

For RRIRWRPPRLPRPRPRPWTWPRP, the “shrunken log2 fold change” value was 0.0111.

In the case of RRIRPRPPRLPRPRPRPDFSPRP, the “shrunken log2 fold change” value is reported as 0.0658.

For RRIRARPPRLPRPRPRPVQDPRP, the “shrunken log2 fold change” value was -0.0965.

For RRIRVRPPRLPRPRPRPELYPRP, the “shrunken log2 fold change” value was 0.0948.

For RRIRARPPRLPRPRPRPSMIPRP, the “shrunken log2 fold change” value was -0.128.

In the case of RRIRPRPPRLPRPRPRPPILPRP, the “shrunken log2 fold change” value is reported as -0.000706.

RRIRDRPPRLPRPRPRPCNTPRP was tested, and the “shrunken log2 fold change” value was -0.224.

With RRIRRRPPRLPRPRPRPCARPRP the “shrunken log2 fold change” value was 0.395.
